“And” between values parts separate entries of the source, which are not always exact repeats. Identical values can stand only once.
Tests used:
[1] = clinical grade, recombinant from E. coli; cited from earlier work
[2] = tested on: S. aureus NRS 271 (MRSA, LRSA); assay: Checkerboard assay, additional MRSA strains; format: cell-based; details: paired agent not given
[3] = tested on: S. aureus strain MW2; assay: Transmission electron microscopy of lytic activity; format: cell-based
Procedure: FIG. 13 depicts TEM analysis of S. aureus strain MW2 treated with PlySs2 (CF-301) in either human serum (HuS) or MHB for 15 minutes.
Staphylococci were treated with a range of PlySs2 (CF-301) concentrations for […] in either human serum or MHB before analysis by transmission electron microscopy (TEM). […] In addition to the more rapid bacteriolysis in serum, the lytic event was visually different in comparison to the event in MHB. In human serum, all bacteria are encased in a proteinaceous sheath presumably consisting of host proteins including HSA. […] In contrast, the lytic event in MHB appears as the classic cytoplasmic membrane bubbling and extrusion just prior to lysis.
Electron Microscopy. Mid-log phase strain MW2 growing in either CAMHB or human serum (Sigma-Aldrich) was treated with the indicated concentrations of PlySs2 (CF-301) or buffer alone (control) at 37° C. for 15 minutes. The cells were then washed with 1× phosphate buffer (PB) and resuspended in a solution of 4% paraformaldehyde and 2% glutaraldehyde in 0.1 M cacodylate buffer (pH 7.4). The samples were post-fixed in 1% osmium tetroxide, block stained with uranyl acetate, and processed according to standard procedures by The Rockefeller University Electron Microscopy Service. Samples were visualized using a Tecnai™ Spirit BT Transmission Electron Microscope (FEI). […]

[4] = tested on: S. aureus strain MW2; assay: MIC by broth microdilution in human blood matrices and animal sera; format: cell-based; details: for PlySs2/CF-301 MIC: different lots
Procedure: FIG. 5 provides PlySs2 (CF-301) MIC distribution for S. aureus MW2 in different human blood matrices. […] Each sample is described in Supplementary Table 1. The MICs are plotted on the x axis, and the numbers of patient samples with particular MICs are plotted on the y axis.
To understand whether variation in the sources of human blood-derived matrices may impact activity, PlySs2 (CF-301) MICs were determined using an array of 62 different pooled and individual human donor samples of whole blood, serum and plasma from different commercial sources with variations in age, sex, blood type, and type of anticoagulant used. […] Histograms showing MIC frequencies for each of the different matrices indicate that activity in whole blood and serum is equivalent, while activity in plasma differs by ˜1-log 2 dilution (FIG. 5). Overall, the enhancer effect was not impacted by variations in the age, sex, and blood type of individual or pooled donors or by the use of sodium citrate or sodium heparin as anticoagulants (TABLE 3). The effect was also observed in complement-inactivate media, complement preserved media, and was equivalent in at least 3 different matched sets of human blood, serum and plasma fractions, while delipidated serum was not equivalent.
The impact of sample variation on PlySs2 (CF-301) activity in the serum of different animal species was also examined.

[5] = medium head missing (human serum)
[6] = human whole blood (n=13), serum (n=33) and plasma (n=15) samples

B1: PlySs2 (CF-301): antistaphylococcal lysin from a Streptococcus suis prophage; N-terminal CHAP domain, C-terminal SH3-type binding domain; SEQ ID NO:3 (protein, listed as Streptococcus suis)
chain: MTTVNEALNNVRAQVGSGVSVGNGECYALASWYERMISPDATVGLGAGVGWVSGAIGDTISAKNIGSSYNWQANGWTVSTSGPFKAGQIVTLGATPGNPYGHVVIVEAVDGDRLTILEQNYGGKRYPVRNYYSAASYRQQVVHYITPPGTVAQSAPNLAGSRSYRETGTMTVTVDALNVRRAPNTSGEIVAVYKRGESFDYDTVIIDVNGYVWVSYIGGSGKRNYVATGATKDGKRFGNAWGTFK
**Q.** For B1, which “pH range over which active” value [1] is on record?
**A.** 6-9.7 pH

**Q.** And the “temperature range over which active” value [1]?
**A.** 16-55 °C

**Q.** And the ΣFICavg ([2]; CAMHB)?
**A.** 0.5

**Q.** And the ΣFICmin ([2]; CAMHB)?
**A.** 0.38

**Q.** What about the ΣFICavg [2, 5] of the same molecule?
**A.** 0.39

**Q.** And the ΣFICmin [2, 5]?
**A.** 0.25

**Q.** And the “concentration at which bacteriolytic activity was observed by TEM (only the highest tested)” value ([3]; MHB)?
**A.** 5 µg/mL

**Q.** What about the “bacteriolysis observed by TEM” value ([3]; human serum, all concentrations over a 100-fold range) of the same molecule?
**A.** widespread evidence of lysis

**Q.** And the MIC ([4]; AST medium)?
**A.** ^$$MIC AST medium: 0.5 μg/mL

**Q.** What about the “PlySs2/CF-301 MIC” value ([4]; dog serum (undiluted)) of the same molecule?
**A.** 1 µg/mL and 0.5 µg/mL

**Q.** What about the MIC ([4]; human serum, delipidized, pooled lots) of the same molecule?
**A.** 64

**Q.** And the MIC90 [4, 6]?
**A.** 1 µg/mL

**Q.** And the MIC Range [4, 6]?
**A.** 0.5 to 2 µg/mL

**Q.** What about the “PlySs2/CF-301 MIC” value ([4]; mouse serum (undiluted)) of the same molecule?
**A.** 32 µg/mL and 64 µg/mL

**Q.** And the “PlySs2/CF-301 MIC” value ([4]; rabbit serum (undiluted))?
**A.** 1 µg/mL

**Q.** And the “PlySs2/CF-301 MIC” value ([4]; rat serum (undiluted))?
**A.** 8 µg/mL
